{"source": "paper PMC9638971", "key": {"[1]": {"target": "fluorescein-5-maleimide-labelled wild-type lipase A (P. aeruginosa PAO1) (UniProt P26876)"}, "[2]": {"target": "lipase A (LipA) from Pseudomonas aeruginosa PAO1, wild type (P. aeruginosa PAO1) (UniProt P26876)"}, "[3]": {"target": "periplasmic chaperone FkpA of P. aeruginosa (P. aeruginosa PAO1)", "experiment": "SEC-MALS; isolated chaperones at 2 mg/ml, Superdex 200 Increase 10/300 GL; FkpA, SurA and PpiD in 50 mM KCl, 5 mM MgCl2, 20 mM HEPES-KOH pH 7.4; YfgM in 5 mM glycine, 20 mM NaCl, 5 mM Tris-HCl pH 8.5; Skp in 100 mM NaCl, 20 mM Tris-HCl pH 8.0; LipH in 100 mM NaCl, 200 µM TCEP, 50 mM Tris-HCl pH 8.0"}, "[4]": {"target": "fluorescein-5-maleimide-labelled wild-type lipase A (P. aeruginosa PAO1) (UniProt P26876)", "remark": "listed apart in the source"}, "[5]": {"target": "periplasmic chaperone Skp of P. aeruginosa (P. aeruginosa PAO1)", "experiment": "SEC-MALS; isolated chaperones at 2 mg/ml, Superdex 200 Increase 10/300 GL; FkpA, SurA and PpiD in 50 mM KCl, 5 mM MgCl2, 20 mM HEPES-KOH pH 7.4; YfgM in 5 mM glycine, 20 mM NaCl, 5 mM Tris-HCl pH 8.5; Skp in 100 mM NaCl, 20 mM Tris-HCl pH 8.0; LipH in 100 mM NaCl, 200 µM TCEP, 50 mM Tris-HCl pH 8.0"}, "[6]": {"target": "fluorescein-5-maleimide-labelled lipase A mutant LipA_(F144E) (P. aeruginosa PAO1) (UniProt P26876)", "experiment": "MST; FM-labelled LipA_(F144E) kept constant, Skp titrated (monomer concentrations); TGCG buffer with 0.05% Tween 20; 15 min at 22°C; Monolith NT.115"}, "[7]": {"target": "lipase A (LipA) from Pseudomonas aeruginosa PAO1, wild type (P. aeruginosa PAO1) (UniProt P26876)", "remark": "listed apart in the source"}, "[8]": {"target": "periplasmic chaperone Skp of P. aeruginosa (P. aeruginosa PAO1)", "experiment": "SAXS; Skp at 1.20 mg/ml, 15 °C; ab initio reconstitution with P3 symmetry (GASBOR)"}, "[9]": {"target": "lipase A mutant LipA_(F144E) (P. aeruginosa PAO1) (UniProt P26876)", "experiment": "SEC-MALS; LipA_(F144E):Skp mixture (molar ratio 1:3) compared with Skp3 alone; SDS-PAGE and densitometry of the peak fractions"}}}
{"substance": "lipase-specific foldase LipH lacking the TMD (domain or fragment)", "values": [{"measurement": "soluble fraction of LipA in the sedimentation assay, 150 mM NaCl, LipA:LipH molar ratio 1:1", "setting": "[1]", "value": "> 80", "unit": "%"}, {"measurement": "inhibition of pNPB hydrolysis by wild-type LipA with LipH and Skp3 added simultaneously (LipA:LipH:chaperone 1:1:5, 50 mM NaCl)", "setting": "[2]", "value": "< 10", "unit": "%"}]}
{"substance": "periplasmic chaperone FkpA of P. aeruginosa (natural protein)", "values": [{"measurement": "stoichiometry N", "setting": "[3]", "value": 2}]}
{"substance": "periplasmic chaperone Skp of P. aeruginosa (natural protein)", "values": [{"measurement": "soluble fraction of LipA in the sedimentation assay at LipA:Skp3 molar ratios 1:10, 1:3 and 1:1; value at 1:10 and 1:3, dropped dramatically at 1:1", "setting": "[4]", "value": "> 70", "unit": "%"}, {"measurement": "stoichiometry N", "setting": "[5]", "value": 3}, {"measurement": "KD of the first (high-affinity) binding mode", "setting": "[6]", "value": 0.02, "unit": "µM"}, {"measurement": "KD of the second (low-affinity) binding mode", "setting": "[6]", "value": 2, "unit": "µM"}, {"measurement": "decrease in ThT fluorescence of LipA aggregates in the presence of Skp3 (0.5 µM LipA, 5 µM Skp3)", "setting": "[7]", "value": 75, "unit": "%"}, {"measurement": "soluble fraction of LipA in the sedimentation assay, 150 mM NaCl, 0.5 µM LipA and 5 µM Skp3", "setting": "[1]", "value": 66, "unit": "%"}, {"measurement": "stoichiometry N", "setting": "[8]", "value": 3}, {"measurement": "LipA:Skp3 ratio by densitometry of the peak fractions (Skp3 per LipA)", "setting": "[9]", "value": 3}, {"measurement": "stoichiometry N (Skp3 per LipA)", "setting": "[9]", "value": 2}]}
